Data set [1] has as its system Saccharomyces cerevisiae. In words: protein stability index of tFT-peptide fusion (C-terminal peptide) (PSI (0-1 scale)); higher = more stable (slower turnover). How it is done: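 MPS profiling in S. cerevisiae of the tFT-X12 degron library: putative degron peptides plus stable controls, 12 aa, fused to the C-terminus of a sfGFP-mCherry timer. Cells are FACS-sorted into 8 mCherry/sfGFP bins and deep-sequenced. PSI runs from 0 (unstable) to 1 (stable). Backgrounds are wild type, das1Δ and doa10Δ at 30 °C, and wild type, das1Δ, cdc34-1 and cdc53-1 at 37 °C; 2-3 technical replicates each.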

For data set [2], the system named is Saccharomyces cerevisiae. The data set is described as above. To be noted: genetic background: wild type; temperature: 30 C.
The mark [3] stands for this setting: genetic background: cdc34-1, temperature: 37 C.
Setting [4] is: genetic background: cdc53-1, temperature: 37 C.
Where [5] appears, read: genetic background: das1 deletion, temperature: 30 C.
[6] abbreviates: genetic background: das1 deletion, temperature: 37 C.
Setting [7] is: genetic background: doa10 deletion, temperature: 30 C.
[8] abbreviates: genetic background: wild type, temperature: 30 C.
[9] abbreviates: genetic background: wild type, temperature: 37 C.

± gives the standard deviation of the averaged measurements.
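Note: PSI is a weighted mean of sequencing reads over stability bins, variants kept only with over 10 reads, mCherry proximal and sfGFP distal, peptide attached via GGGS linker.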

As to LFRFVFLLFGFW, the protein stability index came to 0.452 ± 0.019 with Saccharomyces cerevisiae [1] (setting [3]); 0.428 ± 0.025 in the data set with Saccharomyces cerevisiae [1] (setting [4]); 0.435 ± 0.015 in the data set on Saccharomyces cerevisiae [1] (setting [5]); 0.566 ± 0.032 in the data set with Saccharomyces cerevisiae [1] (setting [6]); 0.4885 ± 0.0013 in the data set on Saccharomyces cerevisiae [1] (setting [7]); 0.423 ± 0.034 in the data set on Saccharomyces cerevisiae [1] (setting [8]). Moreover, the results for the protein stability index with Saccharomyces cerevisiae [1] (setting [9]) and in the data set with Saccharomyces cerevisiae [2] were 0.526 ± 0.026 and 0.446 ± 0.049, respectively.

For the sequence LFRNIFLFVFLI, the protein stability index turned out to be 0.267 ± 0.029 with Saccharomyces cerevisiae [1] (setting [3]); 0.229 ± 0.0072 with Saccharomyces cerevisiae [1] (setting [4]); 0.362 ± 0.021 with Saccharomyces cerevisiae [1] (setting [5]); 0.468 ± 0.012 with Saccharomyces cerevisiae [1] (setting [6]); 0.334 ± 0.0071 with Saccharomyces cerevisiae [1] (setting [7]); 0.241 ± 0.02 in the data set with Saccharomyces cerevisiae [1] (setting [8]). Besides, the protein stability index in the data set with Saccharomyces cerevisiae [1] (setting [9]) was 0.307 ± 0.016; with Saccharomyces cerevisiae [2], 0.306 ± 0.029.

Regarding LFWTWVLVGVSV, the protein stability index in the data set on Saccharomyces cerevisiae [1] (setting [3]) was found to be 0.1462 ± 0.0014; in the data set on Saccharomyces cerevisiae [1] (setting [4]) it was 0.176 ± 0.029; in the data set on Saccharomyces cerevisiae [1] (setting [5]), 0.192 ± 0.022; in the data set with Saccharomyces cerevisiae [1] (setting [6]), 0.283 ± 0.013; in the data set with Saccharomyces cerevisiae [1] (setting [7]), 0.127 ± 0.0013; in the data set on Saccharomyces cerevisiae [1] (setting [8]) it was 0.164 ± 0.015. Moreover, the results for the protein stability index in the data set with Saccharomyces cerevisiae [1] (setting [9]) and in the data set with Saccharomyces cerevisiae [2] were 0.263 ± 0.033 and 0.256 ± 0.028, respectively.

On to LGATYSVQLYVS, for which the protein stability index in the data set with Saccharomyces cerevisiae [1] (setting [3]) was found to be 0.336 ± 0.044; with Saccharomyces cerevisiae [1] (setting [4]), 0.577 ± 0.022; in the data set with Saccharomyces cerevisiae [1] (setting [5]), 0.539 ± 0.038; with Saccharomyces cerevisiae [1] (setting [6]), 0.621 ± 0.013; in the data set with Saccharomyces cerevisiae [1] (setting [7]), 0.0746 ± 0.012; in the data set with Saccharomyces cerevisiae [1] (setting [8]), 0.0832 ± 0.015. Moreover, the protein stability index in the data set with Saccharomyces cerevisiae [1] (setting [9]) amounted to 0.0856 ± 0.005; with Saccharomyces cerevisiae [2], 0.131 ± 0.0029.

Consider LGIPKLLCFVCT, for which the protein stability index in the data set with Saccharomyces cerevisiae [1] (setting [3]) was 0.424 ± 0.011; in the data set with Saccharomyces cerevisiae [1] (setting [4]), 0.432 ± 0.0061; in the data set on Saccharomyces cerevisiae [1] (setting [5]) it was 0.304 ± 0.023; in the data set with Saccharomyces cerevisiae [1] (setting [6]) it was 0.465 ± 0.02; in the data set with Saccharomyces cerevisiae [1] (setting [7]), 0.248 ± 0.0065; in the data set on Saccharomyces cerevisiae [1] (setting [8]), 0.29 ± 0.019. Moreover, the results for the protein stability index with Saccharomyces cerevisiae [1] (setting [9]) and in the data set on Saccharomyces cerevisiae [2] were 0.421 ± 0.017 and 0.386 ± 0.019, respectively.

Turning to LGLCFFFYSLHS, the protein stability index amounted to 0.539 ± 0.064 with Saccharomyces cerevisiae [1] (setting [3]); 0.58 ± 0.037 in the data set on Saccharomyces cerevisiae [1] (setting [4]); 0.411 ± 0.041 with Saccharomyces cerevisiae [1] (setting [5]); 0.586 ± 0.013 with Saccharomyces cerevisiae [1] (setting [6]); 0.37 ± 0.0054 in the data set with Saccharomyces cerevisiae [1] (setting [7]); 0.401 ± 0.016 in the data set on Saccharomyces cerevisiae [1] (setting [8]). Further, the protein stability index with Saccharomyces cerevisiae [1] (setting [9]) amounted to 0.599 ± 0.057; in the data set on Saccharomyces cerevisiae [2], 0.462 ± 0.0096.

For LGNVTDVMHRLS, the protein stability index was determined as 0.645 ± 0.038 in the data set with Saccharomyces cerevisiae [1] (setting [3]); 0.739 ± 0.0094 in the data set with Saccharomyces cerevisiae [1] (setting [4]); 0.6481 ± 0.0036 in the data set on Saccharomyces cerevisiae [1] (setting [5]); 0.734 ± 0.023 with Saccharomyces cerevisiae [1] (setting [6]); 0.328 ± 0.0097 in the data set with Saccharomyces cerevisiae [1] (setting [7]); 0.379 ± 0.012 in the data set with Saccharomyces cerevisiae [1] (setting [8]). Also, the figures for the protein stability index in the data set on Saccharomyces cerevisiae [1] (setting [9]) and in the data set with Saccharomyces cerevisiae [2] were 0.617 ± 0.012 and 0.48 ± 0.0083, respectively.

For the sequence LGVVLFCFRFCR, the protein stability index is 0.464 ± 0.0074 in the data set with Saccharomyces cerevisiae [1] (setting [3]); 0.556 ± 0.028 with Saccharomyces cerevisiae [1] (setting [4]); 0.391 ± 0.022 in the data set with Saccharomyces cerevisiae [1] (setting [5]); 0.598 ± 0.022 with Saccharomyces cerevisiae [1] (setting [6]); 0.353 ± 0.0068 in the data set on Saccharomyces cerevisiae [1] (setting [7]); 0.371 ± 0.027 in the data set on Saccharomyces cerevisiae [1] (setting [8]). The protein stability index with Saccharomyces cerevisiae [1] (setting [9]) came to 0.543 ± 0.019; with Saccharomyces cerevisiae [2], 0.477 ± 0.005.

As for LHFHIYLIISPF, the protein stability index in the data set on Saccharomyces cerevisiae [1] (setting [3]) turned out to be 0.117 ± 0.0026; in the data set on Saccharomyces cerevisiae [1] (setting [4]), 0.137 ± 0.022; in the data set with Saccharomyces cerevisiae [1] (setting [5]), 0.2 ± 0.02; in the data set with Saccharomyces cerevisiae [1] (setting [6]), 0.311 ± 0.0072; in the data set on Saccharomyces cerevisiae [1] (setting [7]) it was 0.238 ± 0.011; in the data set with Saccharomyces cerevisiae [1] (setting [8]), 0.186 ± 0.034. The protein stability index turned out to be 0.261 ± 0.01 with Saccharomyces cerevisiae [1] (setting [9]) and 0.294 ± 0.012 in the data set on Saccharomyces cerevisiae [2].
